Patent US20250382359A1 (BYOMASS, published 2025)

T1: GDF15 (ligand used in the GFRAL/RET cell assays) (UniProt Q99988 197-308, limits assumed)
T1 sequence (looked up): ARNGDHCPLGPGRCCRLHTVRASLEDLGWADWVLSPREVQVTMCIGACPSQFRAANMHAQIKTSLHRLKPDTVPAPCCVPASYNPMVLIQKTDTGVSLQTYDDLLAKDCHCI

T2: Human GDF15 Fc (human, UniProt Q99988 195-308, limits assumed, biotinylated (EZ-Link Sulfo-NHS-Biotinylation Kit) in the SPR assay)
T2 construct: also called human GDF15-Fc fusion; biotinylated Human GDF15 Fc; not shown: Fc part
T2 sequence: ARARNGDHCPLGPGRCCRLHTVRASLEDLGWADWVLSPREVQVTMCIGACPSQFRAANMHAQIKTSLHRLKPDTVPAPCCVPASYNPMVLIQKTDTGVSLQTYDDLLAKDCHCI

T3: Human BMP9 (human, UniProt Q9UK05 320-429)
T3 sequence (looked up): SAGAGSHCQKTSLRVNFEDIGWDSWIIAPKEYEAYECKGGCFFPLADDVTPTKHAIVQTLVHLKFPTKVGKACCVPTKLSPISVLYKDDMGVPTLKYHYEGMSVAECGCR

T4: Human Activin A Fc (human, UniProt P08476 311-426)
T4 construct: not shown: Fc part
T4 sequence (looked up): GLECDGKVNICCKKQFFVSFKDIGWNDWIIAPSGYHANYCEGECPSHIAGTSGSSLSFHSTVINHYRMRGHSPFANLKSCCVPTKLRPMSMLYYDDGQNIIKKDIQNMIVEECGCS

T5: Human Activin B (human, UniProt P09529 293-407)
T5 sequence (looked up): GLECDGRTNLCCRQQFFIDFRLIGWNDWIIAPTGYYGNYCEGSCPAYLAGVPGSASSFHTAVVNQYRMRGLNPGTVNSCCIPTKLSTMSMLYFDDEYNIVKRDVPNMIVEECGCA

T6: Human BMP10 (human, UniProt O95393 317-424)
T6 sequence (looked up): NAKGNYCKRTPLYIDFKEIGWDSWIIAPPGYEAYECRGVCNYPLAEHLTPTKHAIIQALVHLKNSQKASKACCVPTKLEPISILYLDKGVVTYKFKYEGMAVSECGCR

T7: GDNF (UniProt P39905 78-211)
T7 sequence (looked up): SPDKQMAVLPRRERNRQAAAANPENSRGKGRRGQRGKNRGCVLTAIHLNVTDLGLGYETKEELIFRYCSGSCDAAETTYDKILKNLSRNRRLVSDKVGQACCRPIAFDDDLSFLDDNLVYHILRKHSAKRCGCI

T8: GDF10 (UniProt P55107 369-478)
T8 sequence (looked up): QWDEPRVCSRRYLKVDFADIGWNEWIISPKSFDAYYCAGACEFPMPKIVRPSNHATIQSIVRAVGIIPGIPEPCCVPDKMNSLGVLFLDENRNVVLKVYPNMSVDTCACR

T9: Cyno GDF15 Fc (cyno, UniProt G7PWZ3 193-308, limits assumed)
T9 construct: also called cyno GDF15-Fc fusion; not shown: Fc part
T9 sequence: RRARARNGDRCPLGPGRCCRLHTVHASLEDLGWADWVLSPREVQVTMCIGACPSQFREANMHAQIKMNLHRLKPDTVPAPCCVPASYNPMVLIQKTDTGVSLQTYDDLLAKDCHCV


Assays:
[1] = molecular target: T1, GDF15 (ligand used in the GFRAL/RET …); assay: cell-based or functional assay
Human GDF15 Fc [2] = molecular target: T2, Human GDF15 Fc; assay: BLI Octet; IgG on sensor, 100 nM antigen (avid)
Procedure: Briefly, ForteBio affinity measurements were performed by loading IgGs on-line onto AHC sensors. Sensors were equilibrated off-line in assay buffer for 30 min and then monitored on-line for 60 seconds for baseline establishment. Sensors with loaded IgGs were exposed to 100 nM antigen for 3 minutes, and afterwards were transferred to assay buffer for 3 min for off-rate measurement. All kinetics were analyzed using the 1:1 binding model.

Human BMP9 = molecular target: T3, Human BMP9; assay: BLI Octet; IgG on sensor
GDF11 = molecular target: T10, GDF11 (UniProt O95390 299-407); assay: BLI Octet; IgG on sensor
T10 construct: Also used as ligand in the Activin 2B receptor/SMAD reporter assay

Human Activin A Fc = molecular target: T4, Human Activin A Fc; assay: BLI Octet; IgG on sensor
Human Activin B = molecular target: T5, Human Activin B; assay: BLI Octet; IgG on sensor
Human BMP10 = molecular target: T6, Human BMP10; assay: BLI Octet; IgG on sensor
GDF8 = GDF8 (UniProt O14793 267-375); assay: BLI Octet; IgG on sensor
GDNF = molecular target: T7, GDNF; assay: BLI Octet; IgG on sensor
GDF10 = molecular target: T8, GDF10; assay: BLI Octet; IgG on sensor
Cyno GDF15 Fc = molecular target: T9, Cyno GDF15 Fc; assay: BLI Octet; antigen on sensor, 100 nM Fab (monovalent)
Human GDF15 Fc [3] = molecular target: T2, Human GDF15 Fc; assay: as above
Human GDF15 Fc [4] = molecular target: T2, Human GDF15 Fc; assay: SPR Biacore 8K; biotinylated antigen captured, Fab analyte
Procedure: Kinetic analysis was conducted at 25° C. in HBS-EP+running buffer (10 mM HEPES pH 7.4, 150 mM NaCl, 3 mM EDTA, 0.05% Surfactant P20) using a Biacore 8K optical biosensor (Cytiva, Marlborough, MA). The sample compartment was maintained at 10° C. for the duration of the experiment. The Biacore 8K can analyze up to 8 separate interactions in a single cycle.
Each experiment cycle began with an injection (300 s at 2 μL/min) overflow cells 1 and 2 of a 1:100 solution of biotin CAPture reagent (Cytiva) in running buffer. This was followed by an injection (45 s at 10.0 μL/min) of biotinylated human GDF15 (5 nM) overflow cell 2. […] The dissociation of the antibodies were monitored for 3420 s. Finally, an injection (120 s at 10 μL/min) of regeneration solution (6 M Guanidine-HCl in 0.25 M NaOH) overflow cells 1 and 2 prepared the sensor surface for another cycle. Several blank buffer samples were injected (300 s at 30 μL/min) overflow cells 1 and 2 throughout the duration of the experiment and used for reference surface subtraction—each were monitored for the same amount of dissociation time (3420 s) and regenerated under the same conditions as those for the Fab sample injections.

T10 sequence (O95390 299-407 limits assumed): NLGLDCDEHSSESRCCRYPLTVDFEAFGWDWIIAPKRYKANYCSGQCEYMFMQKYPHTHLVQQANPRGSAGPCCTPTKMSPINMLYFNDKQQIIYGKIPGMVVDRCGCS

GDF15-GFRAL RET pERK IC50 (pM) [1]	GDF15-GFRAL-RET Luciferase IC50 (pM) [1]	Kd (Human GDF15 Fc [2])	binding result (Human BMP9)	binding result (GDF11)	binding result (Human Activin A Fc)	binding result (Human Activin B)	binding result (Human BMP10)	binding result (GDF8)	binding result (GDNF)	binding result (GDF10)	GDF15 GFRAL RET pERK Fab IC50 pM [1]	Kd (Cyno GDF15 Fc)	Kd (Human GDF15 Fc [3])	Kd (Human GDF15 Fc [4])	koff (Human GDF15 Fc [4])	kon (Human GDF15 Fc [4])	Binder
35 pM	190 pM	0.278 nM	no binding (tested: 100 nM)	no binding (tested: 100 nM)	no binding (tested: 100 nM)	no binding (tested: 100 nM)	no binding (tested: 100 nM)	no binding (tested: 100 nM)	no binding (tested: 100 nM)	no binding (tested: 100 nM)							GDF15 antibody agent Clone E, IgG (antibody, V domains shown) VH: QVQLVQSGAEVKKPGASVKVSCKASGYTFTSYGINWVRQAPGQGLEWMGWITAYSGDTNYAQKLQGRVTMTTDTSTSTAYMELRSLRSDDTAVYYCARGPGQYADVDVWGQGTMVTVSS VL: DIQMTQSPSSVSASVGDRVTITCRASQGISSWLAWYQQKPGKAPKLLIYAASSLQSGVPSRFSGSGSGTDFTLTISSLQPEDFATYYCQQANSFPITFGGGTKVEIKR
	150 pM	0.279 nM	no binding (tested: 100 nM)	no binding (tested: 100 nM)	no binding (tested: 100 nM)	no binding (tested: 100 nM)	no binding (tested: 100 nM)	no binding (tested: 100 nM)	no binding (tested: 100 nM)								GDF15 antibody agent Clone O, IgG (antibody, V domains shown) VH: QVQLVQSGAEVKKPGATVKVSCKASGYTFDSLGMSWVRQAPGQGLEWMGYISTYSGDTVYAQKLQGRVTMTTDTSTSTAYMELRSLRSDDTAVYYCARESGQQVSALDPWGQGTLVTVSS VL: DIQMTQSPSSVSASVGDRVTITCRASQGISRWLAWYQQKPGKAPKLLIYAASSLQSGVPSRFSGSGSGTDFTLTISSLQPEDFATYYCQQGASFPLTFGGGTKVEIKR
			no binding (tested: 100 nM)	no binding (tested: 100 nM)	no binding (tested: 100 nM)	no binding (tested: 100 nM)	no binding (tested: 100 nM)	no binding (tested: 100 nM)	no binding (tested: 100 nM)	no binding (tested: 100 nM)							GDF15 antibody agent Clone T, IgG (antibody, V domains shown) VH: QVQLVQSGAEVKKPGASVKVSCKASGYTFTSYGINWVRQAPGQGLEWMGWITAYSGDTNYAQKLQGRVTMTTDTSTSTAYMELRSLRSDDTAVYYCARGPGQYADVDVWGQGTMVTVSS VL: DIQMTQSPSSVSASVGDRVTITCRASQGISSWLAWYQQKPGKAPKLLIYAASSLQSGVPSRFSGSGSGTDFTLTISSLQPEDFATYYCQQASQFPITFGGGTKVEIKR
35.6 pM		0.274 nM	no binding (tested: 100 nM)	no binding (tested: 100 nM)	no binding (tested: 100 nM)	no binding (tested: 100 nM)	no binding (tested: 100 nM)	no binding (tested: 100 nM)		no binding (tested: 100 nM)							GDF15 antibody agent Clone P, IgG (antibody, V domains shown) VH: QVQLVQSGAEVKKPGATVKVSCKASGYTFDSYGIHWVRQAPGQGLEWMGWITAYSGDTVYAQKLQGRVTMTTDTSTSTAYMELRSLRSDDTAVYYCARESGQTSSALGPWGQGTLVTVSS VL: DIQMTQSPSSVSASVGDRVTITCRASQGISRWLAWYQQKPGKAPKLLIYAASSLQSGVPSRFSGSGSGTDFTLTISSLQPEDFATYYCQQGASFPLTFGGGTKVEIKR
											75.1 pM	0.769 nM	1.28 nM	0.0884 nM	0.000404 s⁻¹	4.57e+06 M⁻¹ s⁻¹	GDF15 antibody agent Clone J, Fab (Fab, V domains shown, Fab; CH1 and CL of the Fab not specified; also called Fab of Clone J) VH: QVQLVQSGAEVKKPGASVKVSCKASGYTFTSYGINWVRQAPGQGLEWMGWIDAYSGSTNYAQKLQGRVTMTTDTSTSTAYMELRSLRSDDTAVYYCARGPGQYADVDVWGQGTMVTVSS VL: DIQMTQSPSSVSASVGDRVTITCRASQGISSWLAWYQQKPGKAPKLLIYAASSLQSGVPSRFSGSGSGTDFTLTISSLQPEDFATYYCQQANSFPITFGGGTKVEIK
			no binding (tested: 100 nM)	no binding (tested: 100 nM)	no binding (tested: 100 nM)	no binding (tested: 100 nM)	no binding (tested: 100 nM)	no binding (tested: 100 nM)	no binding (tested: 100 nM)	no binding (tested: 100 nM)							GDF15 antibody agent Clone S, IgG (antibody, V domains shown) VH: QVQLVQSGAEVKKPGASVKVSCKASGYTFTSYGINWVRQAPGQGLEWMGWITAYSGDTNYAQKLQGRVTMTTDTSTSTAYMELRSLRSDDTAVYYCARGPGQYADVDVWGQGTMVTVSS VL: DIQLTQSPSSVSASVGDRVTITCRASQGISPWLAWYQQKPGKAPKLLIYAASSLQSGVPSRFSGSGSGTDFTLTISSLQPEDFATYYCQQANSFPITFGGGTKVEIKR
254 pM	200 pM	0.235 nM	no binding (tested: 100 nM)	no binding (tested: 100 nM)	no binding (tested: 100 nM)	no binding (tested: 100 nM)	no binding (tested: 100 nM)	no binding (tested: 100 nM)	no binding (tested: 100 nM)	no binding (tested: 100 nM)							GDF15 antibody agent Clone H, IgG (antibody, V domains shown) VH: QVQLVQSGAEVKKPGSSVKVSCKASGGTFSSYYISWVRQAPGQGLEWMGGIAPISGTASYAQKFQGRVTITADESTSTAYMELSSLRSEDTAVYYCARGLAYDGYFDLWGRGTLVTVSS VL: not shown
